# Where no end group is shown, it is not given here. [ ]: non-standard residue; d: D form. The star is where a group is joined. Palmitoyl = CCCCCCCCCCCCCCCC(=O)*; Aib = CC(C)(N)C(=O)O
# T1: GLP-1 receptor, P43220
# T1 chain: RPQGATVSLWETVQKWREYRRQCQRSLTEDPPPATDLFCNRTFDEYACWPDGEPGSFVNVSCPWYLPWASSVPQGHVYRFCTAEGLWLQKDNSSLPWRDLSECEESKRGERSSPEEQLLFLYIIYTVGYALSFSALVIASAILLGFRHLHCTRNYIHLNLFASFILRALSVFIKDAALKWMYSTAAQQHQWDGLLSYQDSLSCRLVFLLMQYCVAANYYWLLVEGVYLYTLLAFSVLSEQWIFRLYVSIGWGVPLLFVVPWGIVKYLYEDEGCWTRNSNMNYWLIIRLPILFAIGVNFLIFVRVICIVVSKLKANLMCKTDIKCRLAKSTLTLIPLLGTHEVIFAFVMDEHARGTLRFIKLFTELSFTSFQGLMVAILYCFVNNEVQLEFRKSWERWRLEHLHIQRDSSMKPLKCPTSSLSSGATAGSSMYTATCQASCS
# T2: GIP receptor, P48546
# T2 chain: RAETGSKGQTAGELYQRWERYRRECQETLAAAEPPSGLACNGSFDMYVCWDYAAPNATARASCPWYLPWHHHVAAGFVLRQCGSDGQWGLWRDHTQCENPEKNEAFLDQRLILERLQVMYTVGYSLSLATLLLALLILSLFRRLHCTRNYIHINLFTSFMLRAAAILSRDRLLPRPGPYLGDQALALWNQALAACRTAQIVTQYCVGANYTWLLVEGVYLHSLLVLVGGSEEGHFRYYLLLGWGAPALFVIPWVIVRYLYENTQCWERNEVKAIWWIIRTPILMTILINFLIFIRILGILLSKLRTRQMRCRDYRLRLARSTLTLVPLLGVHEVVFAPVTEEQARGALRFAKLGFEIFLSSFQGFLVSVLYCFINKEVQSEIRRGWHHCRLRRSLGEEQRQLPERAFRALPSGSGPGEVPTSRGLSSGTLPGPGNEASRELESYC
# Tests used:
# Experiment in all cases: cell-based or functional assay
# [1] = biological target: glucagon receptor, P47871
# [2] = biological target: T1, GLP-1 receptor, P43220
# [3] = biological target: T2, GIP receptor, P48546
# glucagon receptor, P47871, sequence (P47871 26-477 limits assumed): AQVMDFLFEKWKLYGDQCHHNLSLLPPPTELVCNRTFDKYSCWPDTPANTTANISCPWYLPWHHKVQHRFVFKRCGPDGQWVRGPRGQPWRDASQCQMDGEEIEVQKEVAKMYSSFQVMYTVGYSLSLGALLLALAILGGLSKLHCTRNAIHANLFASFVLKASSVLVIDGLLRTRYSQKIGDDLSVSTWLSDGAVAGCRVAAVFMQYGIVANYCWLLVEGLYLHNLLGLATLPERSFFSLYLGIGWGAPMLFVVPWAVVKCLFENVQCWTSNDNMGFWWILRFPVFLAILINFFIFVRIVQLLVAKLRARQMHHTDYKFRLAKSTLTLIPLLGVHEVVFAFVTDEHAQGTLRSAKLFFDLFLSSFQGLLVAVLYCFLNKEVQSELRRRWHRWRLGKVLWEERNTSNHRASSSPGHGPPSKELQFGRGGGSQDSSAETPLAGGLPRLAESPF
binder,measurement,setting,value
Y[Aib]QGTFTSDYSIYLDKQAA[Aib]EFVCWLMNGGPSSGAPPPSK(Palmitoyl)-NH2 (N-terminus assumed; SMILES CCCCCCCCCCCCCCCC(=O)NCCCC[C@H](NC(=O)[C@H](CO)NC(=O)[C@@H]1CCCN1C(=O)[C@@H]1CCCN1C(=O)[C@@H]1CCCN1C(=O)[C@H](C)NC(=O)CNC(=O)[C@H](CO)NC(=O)[C@H](CO)NC(=O)[C@@H]1CCCN1C(=O)CNC(=O)CNC(=O)[C@H](CC(N)=O)NC(=O)[C@H](CCSC)NC(=O)[C@H](CC(C)C)NC(=O)[C@H](Cc1c[nH]c2ccccc12)NC(=O)[C@H](CS)NC(=O)[C@@H](NC(=O)[C@H](Cc1ccccc1)NC(=O)[C@H](CCC(=O)O)NC(=O)C(C)(C)NC(=O)[C@H](C)NC(=O)[C@H](C)NC(=O)[C@H](CCC(N)=O)NC(=O)[C@H](CCCCN)NC(=O)[C@H](CC(=O)O)NC(=O)[C@H](CC(C)C)NC(=O)[C@H](Cc1ccc(O)cc1)NC(=O)[C@@H](NC(=O)[C@H](CO)NC(=O)[C@H](Cc1ccc(O)cc1)NC(=O)[C@H](CC(=O)O)NC(=O)[C@H](CO)NC(=O)[C@@H](NC(=O)[C@H](Cc1ccccc1)NC(=O)[C@@H](NC(=O)CNC(=O)[C@H](CCC(N)=O)NC(=O)C(C)(C)NC(=O)[C@@H](N)Cc1ccc(O)cc1)[C@@H](C)O)[C@@H](C)O)[C@@H](C)CC)C(C)C)C(N)=O) [mt-297],EC50,[1],0.0132 nM
same,EC50,[2],0.0129 nM
same,EC50,[3],0.0168 nM

# From patent US20110166062A1
